Results as given in the DeepSol protein solubility set.

Assay: soluble on expression in E. coli; label from the status in PepcDB or PDB records

| Sequence | soluble on expression in E. coli |
| --- | --- |
| MGSDKIHHHHHHMNREVVIVGGGPAGMLMGLLLAKEKIQVTVLEKNTTFNRDFRGETIAPGSVFLLKKLGVFKALEEHGFIKVQKIKMYDREEKLFSVNFDDFNHPQKFGIDIPQPVVLEALKQKASSYPNFEYIHGATCTDLIKDGEKVVGIRYSKEKEEHQIKCRLVIGAEGRFSRLRTLGHFAVEKKEFSRDLIWFKVPKPEGWEEGNLIKVYKHDHVIILPTYPNDLRVGTYIYLGGNRETKAKGIAAFIDKVCMIEPRLRKPMEKHIKSWDDTTLLKIFTAHVDQWAKDGLILIGDAAHTLSPILGQGVNIAMQDAFELLPYVNSGLKTYEGPLPAHHFDDYISKRKKQVSFVAGFQERQEQNLAASTPFQCMLRKVKMKLLDKAPFKIKVMKKLQYGVVANETTEGLT | not soluble |
| MNSEALDNFEAPRFRPPDEPRMMKNYTTQFSPLDTPPPMNGTPPIAGMHHYLTDPDPSREMMDLPANISNFGRDDASLVLPANLMGGADTSLPNIDRYKMDLPSEIYPNDPMPRGISTPPMNMKFNLGENIGRDVDRGVMNGFGAERQYQDPMIEIEQNLGNIRFESGNEKIKATITKFDEDYYGNEICAQCQAEDAYMDRMRRQAEEERRKYEETMKRAKMYEDLTREKEETFKREEAERNKALRDHVDRVNAEMIEMKKRRPKSPVLENYIFRHESPRSRDVEVRTRKDAYRAELDRQVEEKRLRRIAEFEKNEAIDATSNARAALEFANAREAERKSIEHAKEMARKQLEFQMEMSRVGAPSDKNWLWWAERPDEHGWRDARLKGLKHTNQVERNQTFKQSIGMLEEFKARQAHDDMVMRDNRRAKYDKLRDQLHENSKMLYPLTKTESRPIIVQPDPRVEAAWREAHEKYDRKFAVLQDNAMKSISGAALDGVAHATTSCRRCARCARPMERKTTLFVNRGETILPHQANWHS | not soluble |
| MSATVVDAVNAAPLSGSKEMSLEEPKKMTREDWRKKKELEEQRKLGNAPAEVDEEGKDINPHIPQYISSVPWYIDPSKRPTLKHQRPQPEKQKQFSSSGEWYKRGVKENSVITKYRKGACENCGAMTHKKKDCFERPRRVGAKFTGTNIAPDEHVQPQLMFDYDGKRDRWNGYNPEEHMKIVEEYAKVDLAKRTLKAQKLQEELASGKLVEQANSPKHQWGEEEPNSQTEKDHNSEDEDEDKYADDIDMPGQNFDSKRRITVRNLRIREDIAKYLRNLDPNSAYYDPKTRAMRENPYANAGKNPDEVSYAGDNFVRYTGDTISMAQTQLFAWEAYDKGSEVHLQADPTKLELLYKSFKVKKEDFKEQQKESILEKYGGQEHLDAPPAELLLAQTEDYVEYSRHGTVIKGQERAVACSKYEEDVKIHNHTHIWGSYWKEGRWGYKCCHSFFKYSYCTGEAGKEIVNSEECIINEITGEESVKKPQTLMELHQEKLKEEKKKKKKKKKKHRKSSSDSDDEEKKHEKLKKALNAEEARLLHVKETMQIDERKRPYNSMYETREPTEEEMEAYRMKRQRPDDPMASFLGQ | not soluble |
| MSLQTKILIIDGDKDNCQKLKGFLEEKGISIDLAYNCEEAIGKIFSNKYDLIFLEIILSDGDGWTLCKKIRNVTTCPIVYMTYINEDQSILNALNSGGDDYLIKPLNLEILYAKVKAILRRMNSYVNNNENNTKLEEYNRTSGVIKLEDKIIKLTPTENKLLNFFIENPEKTLTTKEIYEHVWMNEYLEDNYSVVVAVNGLRKKIEKDYKNPQKIITIRGAGYYFNKEGHHHHHH | soluble |
| MTENNVDPYEVVKKRYESTVDSFVLSDLFQPTLESNQELIDDVKDNRLVIYTAFTGNYDELKEPEFIDENCDYVCFTENPDLESDTWEIVQMEKSTLDDNRKAKQYRLFTDKYFPEYKYSFWLDGTFKIVGSIREYIYKYAKSKMLVVVHPERDCIYDEAVMSMPFPRYSNYTMTKQVEKYRSEGMPEHYGLPATGALFRAHNDPEIISIMRQWWREVVNYTNQDQLSLPYVMWKNNFHPSVSDVYYWVNEYWSKEGSYQHNFEIEDYITSRNLIESLEGNIKDKNTLTKEEINLLFNDIDALRDEANALNIARDHWDRQIRGVRNSTSWLEHHHHHH | soluble |
| MELKNSISDYTETEFKKIIEDIINCEGDEKKQDDNLEHFISVTEHPSGSDLIYYPEGNNDGSPEAVIKEIKEWRAANGKSGFKQG | soluble |
| MGSGGVVHCRCAKCFCYPTKRRIRRRPRNLTILSLPEDVLFHILKWLSVEDILAVRAVHSQLKDLVDNHASVWACASFQELWPSPGNLKLFERAAEKGNFEAAVKLGIAYLYNEGLSVSDEARAEVNGLKASRFFSLAERLNVGAAPFIWLFIRPPWSVSGSCCKAVVHESLRAECQLQRTHKASILHCLGRVLSLFEDEEKQQQAHDLFEEAAHQGCLTSSYLLWESDRRTDVSDPGRCLHSFRKLRDYAAKGCWEAQLSLAKACANANQLGLEVRASSEIVCQLFQASQAVSKQQVFSVQKGLNDTMRYILIDWLVEVATMKDFTSLCLHLTVECVDRYLRRRLVPRYRLQLLGIACMVICTRFISKEILTIREAVWLTDNTYKYEDLVRMMGEIVSALEGKIRVPTVVDYKEVLLTLVPVELRTQHLCSFLCELSLLHTSLSAYAPARLAAAALLLARLTHGQTQPWTTQLWDLTGFSYEDLIPCVLSLHKKCFHDDAPKDYRQVSLTAVKQRFEDKRYGEISQEEVLSYSQLCAALGVTQDSPDPPTFLSTGEIHAFLSSPSGRRTKRKRENSLQEDRGSFVTTPTAELSSQEETLLGSFLDWSLDCCSGYEGDQESEGEKEGDVTAPSGILDVTVVYLNPEQHCCQESSDEEACPEDKGPQDPQALALDTQIPATPGPKPLVRTSREPGKDVTTSGYSSVSTASPTSSVDGGLGALPQPTSVLSLDSDSHTQPCHHQARKSCLQCRPPSPPESSVPQQQVKRINLCIHSEEEDMNLGLVRL | soluble |
| MGSSHHHHHHGSSNILIINGAKKFAHSNGQLNDTLTEVADGTLRDLGHDVRIVRADSDYDVKAEVQNFLWADVVIWQMPGWWMGAPWTVKKYIDDVFTEGHGTLYASDGRTRKDPSKKYGSGGLVQGKKYMLSLTWNAPMEAFTEKDQFFHGVGVDGVYLPFHKANQFLGMEPLPTFIANDVIKMPDVPRYTEEYRKHLVEIFG | soluble |
| MSLKVDSFSLPLSSPLATARETISQRSGFVVRYDHRGETGVGEATPLPGWTESLDDCQRGLNDAATVAAGGGHTDVLLSLDAASVPAARHGFATALLDADARADGVPLYQWFDSERHCNRVPVNATVGDGSPAETADAVERAVEAGYDCCKMKVGKRTVDEDVARVRTVRERVGDDVTLRADANGAWSRDRAQEAFDRLAPLDVAYVEQPLPADDLTGHAGLRGNGVGVALDESLVDRRVDSVLDADAADVLILKPMVLGGPGNAHTLALRAREQGVEPVVTTTIDAVVARLAALHVAAAIPDVAACGLATGDRLAADLAPDPTTVTDGAMSVPQSTGLGIDPTEVGTDAEGHHHHHH | soluble |
| MSAVMATYLLHDETDIRKKAEGIALGLTIGTWTDLPALEQEQLRKHKGEVVAIEELGESERVNAYFGKRLKRAIVKIAYPTVNFSADLPALLVTTFGKLSLDGEVRLLDLEFPDEWKRQFPGPRFGIDGIRDRVGVHNRPLLMSIFKGMIGRDLAYLTSELKKQALGGVDLVKDDEILFDSELLPFEKRITEGKAALQEVYEQTGKRTLYAVNLTGKTFALKDKAKRAAELGADVLLFNVFAYGLDVLQALREDEEIAVPIMAHPAFSGAVTPSEFYGVAPSLWLGKLLRLAGADFVLFPSPYGSVALEREQALGIARALTDDQEPFARAFPVPSAGIHPGLVPLIIRDFGLDTIVNAGGGIHGHPDGAIGGGRAFRAAIDAVLAGRPLRAAAAENEALQKAIDRWGVVEVEA | soluble |
| MTSPMTSKDSKLTLAEKVWRDHVVSQGEGDQPDLIFIDLQLLHEVTSPQAFDGLRMAGRTLRHPELHLATEDHNVPTEGIHNGSLLEINDLVSRTQVETLRKNCEEFGVRLHAMGDKKQGIVHQVGPQLGATQPGMTIVCGDSHTSTHGAFGAMAFGIGTSEVEHVMATQTLSLKPFKTMAINVTGELQPGVTAKD | not soluble |
| MGSDKIHHHHHHMLAQVPNTISLQQELTPLLQHEWLPHINQRDYHSGSQGGWDVLALRCAEEYHAAHPILQAFSISAANEWDNLPALESSPTLLDFIQSLACPVKSVRFMRLHAGAEIKPHRDQGLSLEQGEARLHLPLQTHDQLYFYVNDQRVPMQAGELWYINADQSHWVANKGSSARINLVIDCKVNSWLRELIHGAKIKA | not soluble |
| MSLHELDYYLIELDNPFCSDLPKIIAVHDKNLRYTSMGRGSSIEMRTITAYGEILERYCLWNQTPDLTSAFCADKPMLSPEEQVLPISESIDDREVEWKSYYSLSNHQRIFIHRPINSACYSNYFTQTSNGSAVHETEELAINSALEELIERHLFNIFWLFESNILEKSFSSDEIEHAIESGWRLDFYEIRDYKSCTICVMINRSDRRFSKGAMTVGLSFGSDSDACIRAYTECLQTLEAYLAFDKKVNNASLYYLSGKGTSQWQRKINTSLSSTPLSITKSVFEKYSPYMFTEKTNNDLVYCEVVMPHLIPLQYEHERDIRVNPDLLGHLTHRNMCYPIGEGHHHHHH | not soluble |
| MSETVQLDVGGTIFKTSKSTLTKFNGFLKIMLESDIGLKIDESGSIFIDRSPKHFDLILNFMRDGDVVLPSCELTVKELLAEAQFYLLDELIELCSLKIEPVQAPKIKLRFIENDSQLLQILAAQQKPMLIIEYCMVGNDMSIPYNFNLYEFIEKQSHQFDIYFQRLSEDESSHKWKARIKWKPTENGYYSQFPYNLRINRGGRIIRDAKFLFLFFSSWLSSKNHCSLLDMCMIPIDCIVCPFQKISMCVPSLIRIPISSRFISRNIKIISFGLQR | soluble |
| MGKKPISILLMGTDTGALGRSYKGRTDSMMVVTINPKTKKTTITSIPRDLGVTIPGYESKSPSKINAAYAFGQAGTAIKTVQQVFNVPIDFYVLVNMGGMEKVVDEAGGVDITPTLSFTYDGYTFTKGVKTHMNGKKALAYSRMRYDDPQNDYGRQTRQRAVLTAIISKSSSVSSLLNKDFIDSISNETKTDFTFNDLVDLAKNYRSSTGSIEETHAQGDGQMVNGQSMEIVSNTELQRVTNFIRNGLSLEHEKTGTAALSASSANTSDSSVEAANINAGNLEHHHHHH | soluble |
| GPGSMAVNILKAGFPVSVWNRTASKCDDLVAAGATACATPAELAAASDVVFTNLSDSPDVMEVVFGPNGVAAGICEGAIFVDNSTIKPSVAQEIARRLWKEKKVRALDAPVSGGDIGARNGTLTVMVGGDAAALATVLPVLLAVGKKVTHIGDCGAGQVCKAANQIMVAAQMVALGEILVFCEKCGVSGPTVIEAIKSGSAQCWTLDVKPDRLFAGNRAPGFKAALQSKDMGIVMDTAKEFGVPLPSTAVNTQLFQAMVQNGDGDRDNSAVVSVLERMANVHISEAERE | not soluble |
| MRLLTIGSGLRGAKVAEILHKKGVKVNRVPLFKCFAVLNNEEHLRSISIGDDRKYYVHGLKGDVSGFVNQITSLYEIFEGSLVLTSLEDDFGYITSLELCQRLRKVTEDAVISLAIVPQLDTSSIGEIKKRIRSLRDVSDILILFEGEVGVERKILEVMNLVALAGEIDLKKRVAGEVVVDTSDVFNALKSDGFAIAGLAERKIPFNFKNLIFRRNSELKAVRTRRMIELTEEALQNVSINGDVENAKSALLLFAGKPDELTMEGLFSSIAMIENINRDIVVRYGDYPIPGSRKVSAVLIFSGIRKFRFA | soluble |
| MKTIEIFDPAMCCPTGLCGTNINPELMRIAVVIETLKRQGVVVTRHNLRDEPQVYVSNKTVNQYLQKNGAEALPITLVDGEIAVSKDYPTTKQMSEWTGINLD | soluble |
| MALVEFLMETLDGLKGTDIVHFDVRGKSSITDNMIICTGTSSRQVSAMADNLITECKKAGFETFGEEGKNTADWIVVDLGQAIVHIMQRDAREMYQLEKLWALEHHHHHH | not soluble |
